# Test results reported in the nanobody polyreactivity screen of Harvey et al. (2022).
# Experiment: yeast display, Sf9 membrane polyspecificity reagent, FACS + sequencing; frameworks hold sequencing errors
# In short: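 Galactose-induced (36–48 hours) yeast carrying a synthetic nanobody display library were exposed to 10% biotinylated, detergent-solubilized Sf9 membrane reagent at 4 °C for 1 hour. FACS followed streptavidin microbead enrichment, using low and high (top ~1%) gates for expression (anti-HA) and reagent binding (streptavidin). Colony PCR, MiSeq 2 × 250 sequencing and CDR-length filtering followed. Labels for polyreactivity reflect the gate of origin.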
row,Sequence,polyreactivity (PSR sort gate)
1,QVQLVESGGGLVQAGGSLRLSCAASGRIFYPYAMGWYRQAPGKERELVAAISARGGSTYYADSVKGRFTISRDNAKNTVYLQMNSLKPEDTAVYYCATYTYRGVAEMDYWGQGTQVTVSS,high polyreactivity
2,QVQLVESGGGLVQAGGSLRLSCAASGRIFYPYAMGWYRQAPGKERELVASITSGGGTYYADSVKGRFTISRDNAKNTVYLQMNSLKPEDTAVYYCAAKYYTSWIRYDYWGQGTQVTVSS,low polyreactivity
3,QVQLVESGGGLVQAGGSLRLSCAASGRIFYRNAKGWYRQATGKERALVASITSGGRTNYADSVKGRFTISRDNAKNTVYLQMNSLKPEDTAVYYCAAPPPYSVRTFRFYYWGQGTQVTVSS,high polyreactivity
4,QVQLVESGGGLVQAGGSLRLSCAASGRIFYRNAMGRYRQAPGKERELVAAISSSGGRTYYADSVKGRFTISRDNAKITVYFQMNSLKPEDTAVYYCNRAYYLDSGYDSWGQGTQVTVSS,high polyreactivity
5,QVQLVESGGGLVQAGGSLRLSCAASGRIFYRNAMGWSRQAPGKERELVASITSAGRTYYADSVKGRFTISRDNAKNTVYLQMNSLKPEDTAVYYCAVRVAVLLNLYGYWGQGTQVTVSS,low polyreactivity
6,QVQLVESGGGLVQAGGSLRLSCAASGRIFYRNAMGWYRQAPGKERELVAAISSGSGTYYADSVKGRFTISRDNAKNTVYLQMNSLKPEDTAVYYCAARARSRDYYWGQGTQVTVSS,high polyreactivity
7,QVQLVESGGGLVQAGGSLRLSCAASGRIFYRNVMGWNRQAPGKERELVAAITYRTGSTYYADSVKGRFTISRDNAKNTVYLQMNSLKPEDTAVYYCNVVPRNGQTWGYEYDYWGQGTQVTVSS,high polyreactivity
8,QVQLVESGGGLVQAGGSLRLSCAASGRIFYRYAMGWYRQAPGKEREFVAAISRSGTTTYYADSVKGRFTISRDNAKNTVYLQMNSLKPEDTAVYYCAVGYRGWDGYWGQGTQVTVSS,high polyreactivity
9,QVQLVESGGGLVQAGGSLRLSCAASGRIFYRYAMGWYRQAPGKERELVAAISGRGGSTYYADSVKGRFTISRDNAKNTVYLQMNSLKPEDTAVYYCNALPVYRSLAYEVDYWGQGTQVTVSS,high polyreactivity
10,QVQLVESGGGLVQAGGSLRLSCAASGRIFYRYAMGWYRQAPGKERELVASITGRGGRTYYADSVKGRFTISRDNAKNSVYLHMNSLKPEDTEVYYCAADWGVHRPPYDSWGQGTQVTVSS,high polyreactivity
11,QVQLVESGGGLVQAGGSLRLSCAASGRIFYRYARGWYRQAPGKEREFVAAISGTGGSTYYADSVKGRFTISRDNAKNTVYLQMNSLKPEDTAVYYCAAFSYYSSGYDYWGQGTQVTVSS,high polyreactivity
12,QVQLVESGGGLVQAGGSLRLSCAASGRIFYRYTMGWYRQAPGKERELVAAITRGGNTYYADSVKGRFTISRDNAKNTVYLQMNSLKPEDTAVYYCAKKAPSDRNNYWGQGTQVTVSS,high polyreactivity
13,QVQLVESGGGLVQAGGSLRLSCAASGRIFYSNAMGWYRQAPGKERELVAASRWSGTRTSYADSVKGRFTISRDNAKNTVYLQMNSLKPEDTAVYYCAAAGWYHSYWGQGTQVTVSS,high polyreactivity
14,QVQLVESGGGLVQAGGSLRLSCAASGRIFYSNAMGWYRQAPGKERELVAGINYRDGSTYYADSVKGRFTISRDNAKKTVYLQMNSLKPEDTAVYYCAKRRQSYPYKTSTWYSHYSWGQGTQVTVSS,high polyreactivity
15,QVQLVESGGGLVQAGGSLRLSCAASGRIFYSNAMGWYRQAPGKERELVATISTGGSTYAESVKGRFTISRDNAKNTVYLQLISLTPEESAVYYCAVDEWRWRVGAVAYYYWGQGTQVTVSS,low polyreactivity
16,QVQLVESGGGLVQAGGSLRLSCAASGRIFYSNAMGWYRQAPGKERELVAVIRRTGSTYYADSVKGRFTISRDNAKNTVYLQMNSLKPEDTAVYYCATRIPYGRGGNRYDYWGQGTQVTVSS,low polyreactivity

row,Sequence,polyreactivity (PSR sort gate)
1,QVQLVESGGGLVQAGGSLRLSCAASGRIFYSNVMGWYRQAPGKERELVAAIRFSGGGTYYADSVKGRFTITRDNAKNTVYLQMNSLKPEDTAVYYCAAEYYLRVSGRTYVTSHDYWGQGTQVTVSS,high polyreactivity
2,QVQLVESGGGLVQAGGSLRLSCAASGRIFYSNVMGWYRQAPGKERELVAAISGRTGGTYYADSVKGRFTISRDNAKNTVYLQMNSLKPEDTAVYYCNAYSLRHHHSDYWGQGTQVTVSS,low polyreactivity
3,QVQLVESGGGLVQAGGSLRLSCAASGRIFYSYAMGWYIPAPGKERELVAAITVSGGSTFYADSVKGRFTISRDNAKNTVYLQMNSLKPEDTAVYYCAAQSTTIEDGWYVEYNYWGQGTQVTVSS,high polyreactivity
4,QVQLVESGGGLVQAGGSLRLSCAASGRIFYSYAMGWYREAPGKERELVAAIDESDGSTYYADSVKGRFTISRDNAKNTVYLQMNSLKQEDTADYYCNADLTLGGEFDYWGHGTQVTVSS,low polyreactivity
5,QVQLVESGGGLVQAGGSLRLSCAASGRIFYSYAMGWYRQAPGKEREFVAAISRSGARTYYADSVKGRFTISRDNAKNTVYLQMNSLKPEDTAVYYCAADDFSTVEYDYWGQGTQVTVSS,low polyreactivity
6,QVQLVESGGGLVQAGGSLRLSCAASGRIFYSYAMGWYRQAPGKERELVAAIDESDGSPYYADSVKGRFTISRDNAKNTVYLQMNSLKPEDTAVYYCAADSLLVLFDYWGQGTQVTVSS,low polyreactivity
7,QVQLVESGGGLVQAGGSLRLSCAASGRIFYSYAMGWYRQAPGKERELVAAIDESDGSTYYADSVKGRFTISRDNAKNTVYLQMNSLKPEDTAVYYCAAGYLDVLWLLDLLQLYGYWGQGTQVTVSS,low polyreactivity
8,QVQLVESGGGLVQAGGSLRLSCAASGRIFYSYAMGWYRQAPGKERELVAAISWSGGRTYYADSVKGRFTISRDNAKNNVYLQMNSLKPEDTAVYYCARRGYYYDYWGQGTQVTVSS,high polyreactivity
9,QVQLVESGGGLVQAGGSLRLSCAASGRIFYSYAMGWYRQAPGKEWELVAVNTGGGRTYYADSVKGRFTISRDNAKNTVYLQMNSLKPEDTAVYYCAYRYGGTFRYDYWGQGTQVTVSS,high polyreactivity
10,QVQLVESGGGLVQAGGSLRLSCAASGRIFYSYAMGWYRQATGKEREMVASISRSGAITNYADSVKGRFTISRDNAKNPVYLQMNSLIPEDTAVYYCAARLRRVYPPYDYWGQGTQVTVSS,high polyreactivity
11,QVQLVESGGGLVQAGGSLRLSCAASGRIFYSYARGWYRQAPGKERELVAAIDESDGSTYYADSVKGRFTISRDNAKNTVYLQMNSLKPEDTAVYYCAADSLLVLFDYWGQGTQVTVSS,low polyreactivity
12,QVQLVESGGGLVQAGGSLRLSCAASGRIFYSYVMGWYRQAPGKERELVAAIRWGGGSTYYADSVKGRFTISPDNPKNTVYLQMNSLKPEDTAVYYCAAAYNWRKYDYWGQGTQVTVSS,high polyreactivity
13,QVQLVESGGGLVQAGGSLRLSCAASGRIFYTNAMGWYRQAPGKERELVAAIKWNGGRTYYADSVKGRFTISRDNAKNTVYLQMNSLKPEDTAVYYCAAGAPVDPWYSGLVVLDGMDYWGQGTQVTVSS,low polyreactivity
14,QVQLVESGGGLVQAGGSLRLSCAASGRIFYTNAMGWYRQAPGKERELVAVISWGGDTTYYADSVKGRFTISRDNAKNTVYLQMNSLKPEDTAVYYCNADWGPTYEIYDSWGQGTQVTVSS,low polyreactivity
15,QVQLVESGGGLVQAGGSLRLSCAASGRIFYTNVMGWYRQAPGKERELVAAISTGGGRTYYADSVKGRFTISRDNAKNTVYLQMNSLKPEDTAVYYCAASGRYAIVWGDQYYGYYYWGQGTQVTVSS,high polyreactivity
16,QVQLVESGGGLVQAGGSLRLSCAASGRIFYTYAMGWYRQAPGKERELVAAISSRTGSTYYADSVKGRFTISRDNAKNTVYLQMNSLKPEDTAVYYCNAYRLRYGYDYWGQGTQVTVSS,high polyreactivity
